{
  "source": "paper PMC11286772",
  "about": "“Structural basis of antagonist selectivity in endothelin receptors” (Cell Discovery, 2024)",
  "target": "T1, ETA, wild type, as used in the size exclusion chromatography analysis with Fab301 (Homo sapiens, UniProt P25101)",
  "T1 construct": "endothelin receptor type A (ETA), human; Probably one of the insect cell constructs m1 or m3; also called WT; WT ETA",
  "T1 sequence (P25101 21-427)": "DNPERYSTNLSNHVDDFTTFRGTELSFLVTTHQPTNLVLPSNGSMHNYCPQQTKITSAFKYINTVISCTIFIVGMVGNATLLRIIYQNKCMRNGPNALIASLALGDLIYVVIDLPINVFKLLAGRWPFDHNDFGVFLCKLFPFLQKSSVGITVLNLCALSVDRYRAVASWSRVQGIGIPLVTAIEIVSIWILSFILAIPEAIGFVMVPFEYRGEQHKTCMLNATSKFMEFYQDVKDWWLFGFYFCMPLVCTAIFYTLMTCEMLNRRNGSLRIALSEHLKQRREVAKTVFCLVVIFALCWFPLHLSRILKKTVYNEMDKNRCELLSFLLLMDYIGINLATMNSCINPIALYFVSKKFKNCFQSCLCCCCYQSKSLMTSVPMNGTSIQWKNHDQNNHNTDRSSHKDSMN",
  "assay": "SEC; retention time of each ETA ECL2 alanine mutant–Fab301 complex against the WT–Fab301 complex",
  "data": [
    {"binder": "Fab301, Fab fragment of the anti-ETA monoclonal antibody Getagozumab (Fab, V domains shown, Purified on Ni-NTA, so one chain probably carries a His tag; In the ambrisentan and zibotentan maps the dynamic regions of Fab301 were masked out; also called ETA-specific antibody; Getagozumab Fab; source: Hi5 insect cells, baculovirus (pFastBac Dual), from the culture supernatant, purified (Ni-NTA, Superdex 200)) VH: QVTLKESGPTLVKPTQTLTLTCTFSGFSLTTSGLGVAWIRQPPGKALEWLAHIWSDGDTRYYPALKNRLTITKDTSKNQVVLTMTNMDPVDTATYYCAHMKDDSLYFDNWGQGTLVTVSS VL: EIVLTQSPDFQSVTPKEKVTITCRASQNIGTSIHWYQQKPDQYPKLLIKYASKSISGVPSRFSGSGSGTDFTLTINSLEAEDAATYYCQHSYSFPWTFGQGTKVEIK", "values": [
      {"measurement": "binding result", "result": "binds"}
    ]}
  ]
}
